According to patent publication US20130115678:
Where a chain is given by its changes, count along the chain named.

How the values were obtained:
Assay in all cases: cleavage_in_vitro
[1] = molecular target: T1, PstI-HF D91A (Providencia stuartii 164) (UniProt P00640); conditions: NEB4, 37 C, Mg2+; FI NEB1-3: 1000, 4000, 4000
T1 sequence: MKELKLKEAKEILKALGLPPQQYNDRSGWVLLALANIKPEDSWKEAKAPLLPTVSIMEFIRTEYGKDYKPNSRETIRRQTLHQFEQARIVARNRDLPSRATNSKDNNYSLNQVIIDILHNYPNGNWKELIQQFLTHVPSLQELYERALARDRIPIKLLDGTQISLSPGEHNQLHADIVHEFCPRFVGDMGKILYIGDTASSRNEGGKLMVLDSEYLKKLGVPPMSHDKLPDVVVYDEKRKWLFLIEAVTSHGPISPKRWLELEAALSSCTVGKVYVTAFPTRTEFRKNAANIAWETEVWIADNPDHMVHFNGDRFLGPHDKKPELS

[2] = tested on: T2, BsmBI (Bacillus stearothermophilus); conditions: NEB4, 55 C, Mg2+; FI NEB1-3: 1, 8, 120
T2 sequence: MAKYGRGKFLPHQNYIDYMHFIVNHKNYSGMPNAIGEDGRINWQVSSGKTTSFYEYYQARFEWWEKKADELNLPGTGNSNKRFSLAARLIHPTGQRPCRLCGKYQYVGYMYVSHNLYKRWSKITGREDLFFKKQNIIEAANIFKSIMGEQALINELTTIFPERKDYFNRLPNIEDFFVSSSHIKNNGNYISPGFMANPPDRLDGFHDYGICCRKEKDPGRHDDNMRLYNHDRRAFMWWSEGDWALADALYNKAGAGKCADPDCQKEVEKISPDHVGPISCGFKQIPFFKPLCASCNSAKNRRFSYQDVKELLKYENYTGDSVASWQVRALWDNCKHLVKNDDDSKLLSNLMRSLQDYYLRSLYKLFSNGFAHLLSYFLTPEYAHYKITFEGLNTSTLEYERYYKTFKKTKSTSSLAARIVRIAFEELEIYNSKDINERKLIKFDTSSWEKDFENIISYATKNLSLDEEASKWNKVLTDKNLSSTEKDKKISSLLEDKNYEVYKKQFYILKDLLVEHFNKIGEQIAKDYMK

[3] = molecular target: T3, HpaI (Haemophilus parainfluenzae) (UniProt P29537); conditions: NEB4, 37 C, Mg2+; FI NEB1-3: 32, 1, 2
T3 sequence: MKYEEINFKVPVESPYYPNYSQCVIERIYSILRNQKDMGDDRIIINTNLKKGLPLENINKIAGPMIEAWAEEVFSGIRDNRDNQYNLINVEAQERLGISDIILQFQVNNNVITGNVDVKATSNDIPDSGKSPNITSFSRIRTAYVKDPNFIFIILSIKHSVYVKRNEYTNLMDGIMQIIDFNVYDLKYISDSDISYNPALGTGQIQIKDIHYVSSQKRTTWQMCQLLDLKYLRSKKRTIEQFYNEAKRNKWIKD

[4] = tested on: T4, NcoI (Nocardia corallina); conditions: NEB4, 37 C, Mg2+; FI NEB1-3: 120, 32, 120
T4 sequence: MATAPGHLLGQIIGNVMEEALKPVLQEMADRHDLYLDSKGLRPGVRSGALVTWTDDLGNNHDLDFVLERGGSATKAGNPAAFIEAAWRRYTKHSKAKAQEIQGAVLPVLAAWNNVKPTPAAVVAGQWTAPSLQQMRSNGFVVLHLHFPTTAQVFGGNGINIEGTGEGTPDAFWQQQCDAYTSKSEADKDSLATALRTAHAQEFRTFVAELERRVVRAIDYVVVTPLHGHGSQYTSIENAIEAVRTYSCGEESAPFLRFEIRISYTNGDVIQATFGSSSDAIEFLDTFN

[5] = tested on: T5, NcoI-HF A2T/R31A (Nocardia corallina); conditions: NEB4, 37 C, Mg2+; Table 3 prints >=64000; FI NEB1-3: >=4000, >=4000, >=1000
T5 sequence: T4 sequence with A2T, R31A

lambda phage DNA gave an activity (fidelity index) [1] of 4000, an activity (fidelity index) [2] of 4 and an activity (fidelity index) [3] of 16. For the same substance, the activity (fidelity index) [4] was 32 and the activity (fidelity index) [5] was > 16000.
